Test results: IntAct's records for PubMed 26068852

B1: TRAF-interacting protein with FHA domain-containing protein A (Homo sapiens), Q96CG3 (parent)
chain: MTSFEDADTEETVTCLQMTVYHPGQLQCGIFQSISFNREKLPSSEVVKFGRNSNICHYTFQDKQVSRVQFSLQLFKKFNSSVLSFEIKNMSKKTNLIVDSRELGYLNKMDLPYRCMVRFGEYQFLMEKEDGESLEFFETQFILSPRSLLQENNWPPHRPIPEYGTYSLCSSQSSSPTEMDENES
partner: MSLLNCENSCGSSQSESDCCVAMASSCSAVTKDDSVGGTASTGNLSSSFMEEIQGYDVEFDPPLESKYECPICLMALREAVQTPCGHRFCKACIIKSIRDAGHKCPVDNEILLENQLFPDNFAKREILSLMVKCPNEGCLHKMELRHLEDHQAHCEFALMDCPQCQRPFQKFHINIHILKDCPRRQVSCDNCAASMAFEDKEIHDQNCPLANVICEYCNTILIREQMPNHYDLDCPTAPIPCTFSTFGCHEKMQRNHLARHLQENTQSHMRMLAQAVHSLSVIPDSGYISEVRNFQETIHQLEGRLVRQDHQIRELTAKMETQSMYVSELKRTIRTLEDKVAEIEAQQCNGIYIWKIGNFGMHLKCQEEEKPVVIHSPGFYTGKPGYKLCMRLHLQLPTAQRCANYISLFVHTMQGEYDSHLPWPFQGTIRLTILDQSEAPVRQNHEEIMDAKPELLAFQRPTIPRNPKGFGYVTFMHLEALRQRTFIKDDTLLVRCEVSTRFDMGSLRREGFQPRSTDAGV

Variants of: B1
Conditions: with traf6_human TRAF6, Q9Y4K3

Effect of a mutation on the interaction, disrupting interaction strength:
MTSFEDADTEETVTCLQMTVYHPGQLQCGIFQSISFNREKLPSSEVVKFGRNSNICHYTFQDKQVSRVQFSLQLFKKFNSSVLSFEIKNMSKKTNLIVDSRELGYLNKMDLPYRCMVRFGEYQFLMEKEDGESLEFFETQFILSPRSLLQENNWPPHRPIPEYGTYSLCSSQSSSPTAMDENES
MTSFEDADAEETVTCLQMTVYHPGQLQCGIFQSISFNREKLPSSEVVKFGRNSNICHYTFQDKQVSRVQFSLQLFKKFNSSVLSFEIKNMSKKTNLIVDSRELGYLNKMDLPYRCMVRFGEYQFLMEKEDGESLEFFETQFILSPRSLLQENNWPPHRPIPEYGTYSLCSSQSSSPTEMDENES
MTSFEDADTEETVTCLQMTVYHPGQLQCGIFQSISFNREKLPSSEVVKFERNSNICHYTFQDKQVARVQFSLQLFKKFNSSVLSFEIKNMSKKTNLIVDSRELGYLNKMDLPYRCMVRFGEYQFLMEKEDGESLEFFETQFILSPRSLLQENNWPPHRPIPEYGTYSLCSSQSSSPTEMDENES
